Measured values reported in publication PMC5636791, “Non-canonical reader modules of BAZ1A promote recovery from DNA damage”.

How the values were obtained:
[1] = target: T1, BAZ1A-PHD (human, UniProt Q9NRL2 1137-1202); assay: BLI; conditions: n=6; value from figure text layer, assigned to the nucleosome panel; BLI: 50 mM Tris pH 7.5, 150 mM NaCl, 1 mM TCEP, 0.5% BSA, 0.01% Tween-20, 23 C; FP: 20 mM Tris pH 7.5, 150 mM NaCl, 1% glycerol, 0.5 mg/mL BSA, 0.05% Triton …
T1 sequence: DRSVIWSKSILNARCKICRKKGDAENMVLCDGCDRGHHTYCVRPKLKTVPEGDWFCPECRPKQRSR

[2] = target: T2, dAcf1-PHD(1) (Drosophila, UniProt Q9V9T4 1051-1115); assay: BLI; BLI: 50 mM Tris pH 7.5, 150 mM NaCl, 1 mM TCEP, 0.5% BSA, 0.01% Tween-20, 23 C; FP: 20 mM Tris pH 7.5, 150 mM NaCl, 1% glycerol, 0.5 mg/mL BSA, 0.05% Triton X-100, RT, 50 nM probe; HDX: PBS pH 7.2, 5 C; conditions: protein: recombinant; tags: His6-FLAG N-terminal, removed for BLI; label: 5' biotin; blunt
T2 sequence: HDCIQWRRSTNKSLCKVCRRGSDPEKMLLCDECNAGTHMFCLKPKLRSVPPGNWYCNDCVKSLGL

[3] = target: T3, BAZ1A-PHD K1181A/K1183Y (KAKY) (human, UniProt Q9NRL2 1137-1202, K1181A;K1183Y); assay: as above; conditions: protein: recombinant; tags: His6-FLAG N-terminal, removed for BLI; label: 5' biotin; blunt
T3 sequence: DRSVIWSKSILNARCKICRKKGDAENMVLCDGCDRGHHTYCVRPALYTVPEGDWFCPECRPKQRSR

[4] = target: T4, BAZ1B-PHD A1227K/Y1229K (UniProt Q9UIG0 1172-1237, A1217K;Y1219K); assay: as above; conditions: protein: recombinant; tags: His6-FLAG N-terminal, removed for BLI; label: 5' biotin; blunt
T4 sequence: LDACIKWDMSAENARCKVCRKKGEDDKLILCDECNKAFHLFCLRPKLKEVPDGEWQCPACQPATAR

[5] = target: T5, BAZ1B-PHD (UniProt Q9UIG0 1172-1237); assay: as above; conditions: protein: recombinant; tags: His6-FLAG N-terminal, removed for BLI; label: 5' biotin; blunt
T5 sequence: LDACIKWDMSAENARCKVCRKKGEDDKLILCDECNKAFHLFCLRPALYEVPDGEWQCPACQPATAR

[6] = target: T1, BAZ1A-PHD; assay: BLI; n=10; BLI: 50 mM Tris pH 7.5, 150 mM NaCl, 1 mM TCEP, 0.5% BSA, 0.01% Tween-20, 23 C; FP: 20 mM Tris pH 7.5, 150 mM NaCl, 1% glycerol, 0.5 mg/mL BSA, 0.05% Triton X-100, RT, 50 nM probe; HDX: PBS pH 7.2, 5 C; conditions: protein: recombinant; tags: His6-FLAG N-terminal, removed (TEV/thrombin) for BLI; HDX construct tag-free with extra non-native residues; label: 5' biotin; blunt
[7] = target: T1, BAZ1A-PHD; assay: competition; fluorescence polarization, 5.3 uM protein, 50 nM labeled probe; IC50 not in text; BLI: 50 mM Tris pH 7.5, 150 mM NaCl, 1 mM TCEP, 0.5% BSA, 0.01% Tween-20, 23 C; FP: 20 mM Tris pH 7.5, 150 mM NaCl, 1% glycerol, 0.5 mg/mL BSA, 0.05% Triton X-100, RT, 50 nM probe; HDX: PBS pH 7.2, 5 C; conditions: protein: recombinant; tags: His6-FLAG N-terminal, removed (TEV/thrombin) for BLI; HDX construct tag-free with extra non-native residues; blunt
[8] = target: T1, BAZ1A-PHD; assay: BLI; identical results to scrambled sequence; BLI: 50 mM Tris pH 7.5, 150 mM NaCl, 1 mM TCEP, 0.5% BSA, 0.01% Tween-20, 23 C; FP: 20 mM Tris pH 7.5, 150 mM NaCl, 1% glycerol, 0.5 mg/mL BSA, 0.05% Triton X-100, RT, 50 nM probe; HDX: PBS pH 7.2, 5 C; conditions: protein: recombinant; tags: His6-FLAG N-terminal, removed (TEV/thrombin) for BLI; HDX construct tag-free with extra non-native residues; label: 5' biotin; blunt
[9] = target: T1, BAZ1A-PHD; assay: HDX-MS; 30 uM protein, 100 uM DNA; C-terminal region protected, incl. K1181 and K1183; BLI: 50 mM Tris pH 7.5, 150 mM NaCl, 1 mM TCEP, 0.5% BSA, 0.01% Tween-20, 23 C; FP: 20 mM Tris pH 7.5, 150 mM NaCl, 1% glycerol, 0.5 mg/mL BSA, 0.05% Triton X-100, RT, 50 nM probe; HDX: PBS pH 7.2, 5 C; conditions: protein: recombinant; tags: His6-FLAG N-terminal, removed (TEV/thrombin) for BLI; HDX construct tag-free with extra non-native residues; blunt

In the case of “human biotinylated mononucleosome (EpiCypher)”, the Kd [1] is reported as 48 µM.

B1: scrambled Widom-601 145 bp duplex (dsDNA)
DNA 1: CTTGCATCGATCCGATTGAACCATCGCTCGGTGACAGCTACGTGACTTAGTGTGCCCCATCGATCCAGTTCGATCACAGGCCACCTGAGTCGAGAGTATCGACACCCAGTGAACGATCGATCCGACTCGATCGCCTCACTGCTAG
DNA 2: CTAGCAGTGAGGCGATCGAGTCGGATCGATCGTTCACTGGGTGTCGATACTCTCGACTCAGGTGGCCTGTGATCGAACTGGATCGATGGGGCACACTAAGTCACGTAGCTGTCACCGAGCGATGGTTCAATCGGATCGATGCAAG
B1: no binding [2]; no binding [3]; no binding [4]. For the same molecule, the binding result [5] was “no binding” and the Kd [6] was 51 ± 9 µM.

B2: Widom-601 145 bp duplex, unlabeled (dsDNA)
DNA 1: ATCAGAATCCCGGTGCCGAGGCCGCTCAATTGGTCGTAGACAGCTCTAGCACCGCTTAAACGCACGTACGCGCTGTCCCCCGCGTTTTAACCGCCAAGGGGATTACTCCCTAGTCTCCAGGCACGTGTCAGATATATACATCGAT
DNA 2: ATCGATGTATATATCTGACACGTGCCTGGAGACTAGGGAGTAATCCCCTTGGCGGTTAAAACGCGGGGGACAGCGCGTACGTGCGTTTAAGCGGTGCTAGAGCTGTCTACGACCAATTGAGCGGCCTCGGCACCGGGATTCTGAT
B2: binds [7].

B3: Widom-601 145 bp duplex, biotinylated (dsDNA)
DNA 1: ATCAGAATCCCGGTGCCGAGGCCGCTCAATTGGTCGTAGACAGCTCTAGCACCGCTTAAACGCACGTACGCGCTGTCCCCCGCGTTTTAACCGCCAAGGGGATTACTCCCTAGTCTCCAGGCACGTGTCAGATATATACATCGAT
DNA 2: ATCGATGTATATATCTGACACGTGCCTGGAGACTAGGGAGTAATCCCCTTGGCGGTTAAAACGCGGGGGACAGCGCGTACGTGCGTTTAAGCGGTGCTAGAGCTGTCTACGACCAATTGAGCGGCCTCGGCACCGGGATTCTGAT
B3: binds [8].

B4: 20 bp HDX duplex (dsDNA)
DNA 1: ACTGACTCTGGACTACTGAG
DNA 2: CTCAGTAGTCCAGAGTCAGT
B4: binds [9].
